We go through two molecules from paper PMC3283691, “Low-Resolution Molecular Models Reveal the Oligomeric State of the PPAR and the Conformational Organization of Its Domains in Solution” (PLoS ONE, 2012).

Where “and” joins values, the source holds several entries; their conditions need not be identical. Equal values may be shown once.

Data set [1] has as its target T1, human PPARγ LBD (amino acids 204–477) (Homo sapiens (Human), UniProt P37231-2).
T1 chain: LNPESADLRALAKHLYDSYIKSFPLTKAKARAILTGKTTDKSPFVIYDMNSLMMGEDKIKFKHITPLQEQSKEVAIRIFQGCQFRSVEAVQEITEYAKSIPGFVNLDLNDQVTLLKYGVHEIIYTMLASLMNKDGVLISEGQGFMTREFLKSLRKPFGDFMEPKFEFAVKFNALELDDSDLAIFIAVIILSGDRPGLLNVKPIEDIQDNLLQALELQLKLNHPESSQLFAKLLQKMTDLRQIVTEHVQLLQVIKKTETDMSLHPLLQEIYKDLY
The data set is described as follows: SEC, native PAGE, DLS, SAXS. On the technique in general: In gel filtration, larger molecules generally elute earlier.

Data set [2] deals with the molecule itself. The data set is described as follows: SEC; analytical gel filtration, Superdex 75 HR 10/30 (LBD constructs) or Superdex 200 HR 10/30 (DBD-LBD constructs); 20 mM Hepes-Na pH 8.0, 3 mM dithiothreitol, 200 mM NaCl, 5% glycerol; heterodimers formed from 20 mg/mL of each protein, 1:1 molar, 1 h at 4°C; RH from calibration standards.
Data set [3] addresses T2, human PPARγ LBD (amino acids 204–477) (human, UniProt P37231-2 204-477).
T2 construct: Cloned in pET28a(+); His-tag removed with thrombin; also called hPPARγ LBD; PPAR LBD
T2 sequence (looked up): T1 chain
Described as above. The following applies: both partners purified.

Data set [4] concerns the molecule itself. The data set is described as follows: native gel or EMSA; native polyacrylamide gel electrophoresis after gel filtration; RH from band mobility; hPPARγ LBD at 1 to 20 mg/mL. In general terms: A gel shift assay detects complexes by their altered migration in electrophoresis.
Data set [5] concerns the molecule itself. The data set is described as follows: dynamic light scattering; DLS after gel filtration; hPPARγ LBD at different concentrations.
For data set [6], the target named is T3, human PPARγ DBD-LBD (amino acids 101–468) (Homo sapiens (Human), UniProt P37231-2).
T3 chain: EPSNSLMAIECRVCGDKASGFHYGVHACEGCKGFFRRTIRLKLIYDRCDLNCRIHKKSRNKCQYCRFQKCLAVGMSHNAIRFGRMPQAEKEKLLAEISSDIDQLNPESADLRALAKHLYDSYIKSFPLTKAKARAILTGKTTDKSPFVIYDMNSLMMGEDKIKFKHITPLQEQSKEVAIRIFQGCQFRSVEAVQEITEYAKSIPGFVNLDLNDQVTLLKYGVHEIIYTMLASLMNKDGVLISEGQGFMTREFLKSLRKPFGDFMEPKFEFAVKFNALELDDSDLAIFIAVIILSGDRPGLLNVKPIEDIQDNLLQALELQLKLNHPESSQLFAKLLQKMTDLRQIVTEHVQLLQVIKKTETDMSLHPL
The data set is described as follows: SEC, SAXS, H/D exchange MS.

B1: human RXRα LBD (amino acids 225–462) (domain or fragment, UniProt P19793 225-462, looked up)
chain: SANEDMPVERILEAELAVEPKTETYVEANMGLNPSSPNDPVTNICQAADKQLFTLVEWAKRIPHFSELPLDDQVILLRAGWNELLIASFSHRSIAVKDGILLATGLHVHRNSAHSAGVGAIFDRVLTELVSKMRDMQMDKTELGCLRAIVLFNPDSKGLSNPAEVEALREKVYASLEAYCKHKYPEQPGRFAKLLLRLPALRSIGLKCLEHLFFFKLIGDTPIDTFLMEMLEAPHQMT
notes: Cloned in pET28a(+); also called hRXRα LBD
What is called stoichiometry N is a count of units in the complex or per binding partner. B1: the binding result in data set [1] and in data set [3] was “binds” in each case. The “stoichiometry N” value was 2 and 4 in data set [2]; 4 and 2 in data set [4]; 4 and 2 in data set [5].

B2: human RXRα DBD-LBD (amino acids 135–462) (protein)
chain: CAICGDRSSGKHYGVYSCEGCKGFFKRTVRKDLTYTCRDNKDCLIDKRQRNRCQYCRYQKCLAMGMKREAVQEERQRGKDRNENEVESTSSANEDMPVERILEAELAVEPKTETYVEANMGLNPSSPNDPVTNICQAADKQLFTLVEWAKRIPHFSELPLDDQVILLRAGWNELLIASFSHRSIAVKDGILLATGLHVHRNSAHSAGVGAIFDRVLTELVSKMRDMQMDKTELGCLRAIVLFNPDSKGLSNPAEVEALREKVYASLEAYCKHKYPEQPGRFAKLLLRLPALRSIGLKCLEHLFFFKLIGDTPIDTFLMEMLEAPHQMT
Regarding B2, in data set [6], the binding result was “binds”.
